Reference: patent US20090041784A1 (Amgen, published 2009)
Positions count from the first letter of the chain named.

B1: antibody A-9 (antibody, V domains shown)
VH: QVQLVESGGGVVQPGRSLRLSCAASGFTFSSYGMHWVRQAPGKGLEWVAVMWYDGSNKDYVDSVKGRFTISRDNSKNTLYLQMNRLRAEDTAVYYCAREKDHYDILTGYNYYYGLDVWGQGTTVTVSS
VL: DIQMTQSPSSLSASVGDRVTITCRASQGIRNDLGWYQQKPGKAPKRLIYAASSLESGVPSRFSGSGSGTEFTLTISSVQPEDFVTYYCLQHNSNPLTFGGGTKVEIK
B2: antibody A-18 (antibody, V domains shown)
VH: QVQLVESGGGVVQPGRSLRLSCAASGFTFSRYGMHWVRQAPGKGLEWVAVIWYDGSHKYYEDSVKGRFTISRDNSKNTLYLQMNSLRADDTGVYYCARVGYGSGWYEYYYHYGMDVWGQGTTVTVSS
VL: NIVMTQTPLSLSVTPGQPASISCKSSQSLLHSDGKNYLFWYLQKPGQSPQLLIYEVSYRFSGVPDRFSGSGSGTDFSLKISRVEAEDVGVYYCMQNIQPPLTFGQGTRLEIK
notes: Human antibody from XenoMouse hybridoma (IgG2 or IgG4 strains), purified from conditioned medium; also called L18H18
B3: antibody A-10 (antibody, V domains shown)
VH: QVQLQQSGPGLVRPSQTLSLTCAISGDSVSSNYAAWNWIRQSPSRGLEWLGRTYYRSKWYNDYAVSVRSRTTINPDTSKNQFSLQLNSVTPEDTAVYYCTREDGSGWYGAFDIWGQGTMVTVSS
VL: DIQMTQSPSSLSASVGDRVTITCQASQDISKYLNWYQQKPGKAPKLLIYDASNLETGVPSRFSGSGSGTDFTFTISSLQPEDIATYYCQQYGNLPITFGQGTRLESK
notes: Human antibody from XenoMouse hybridoma (IgG2 or IgG4 strains), purified from conditioned medium; also called L10H10
B4: antibody A-11 (antibody, V domains shown)
VH: QVQLVESGGGVVQPGRSLRLSCAASGSTFRSYDMHWVRQAPGKGLEWVAFISDDGSNKYYGDSVKGRLTISRDNSKNTLYLQMNSLRAEDTAVYYCARDQYDILTGYSSDAFDIWGQGTMVTVSS
VL: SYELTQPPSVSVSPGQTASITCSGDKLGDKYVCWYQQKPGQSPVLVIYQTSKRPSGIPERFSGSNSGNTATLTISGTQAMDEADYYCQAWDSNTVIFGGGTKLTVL
B5: antibody A-13 (antibody, V domains shown)
VH: B4 VH with F50V, D53Y
VL: not shown
B6: antibody A-12 (antibody, V domains shown)
VH: B4 VH
VL: not shown
B7: antibody A-1 (antibody, V domains shown)
VH: QVQLVESGGGVVQPGRSLRLSCAASGITFSSYGMHWVRQAPGKGLEWVASIWYDGSNKYYVDSVKGRFTIFRDNSKKTLYLQMNRLRAEDTAVYYCARLGGGFDYWGQGTLVTVSS
VL: DIVLTQTPLSLPVTPGEPASISCRSSQSLLDRDDGDTYLDWYLQKPGQSPQLLIYTLSYRASGVPDRFSGSGSGTDFSLKISRVEAEDVGVYYCMQRIEFPFTFGPGTKVDIK
B8: antibody A-2 (antibody, V domains shown)
VH: B7 VH with A40G, S50F, N57E, F71S, K77N, R85S, L99M
VL: B7 VL with L4M, R32S, D33A, G74D
B9: antibody A-8 (antibody, V domains shown)
VH: B7 VH with V5A, A23T, S50G, S56R, F71S, R85S, G100A, G101V, G102A
VL: B7 VL with L4M, S26T, R32S, S78T
B10: antibody A-22 (antibody, V domains shown)
VH: B7 VH
VL: B7 VL
B11: antibody A-14 (antibody, V domains shown)
VH: QVQLVESGGGVVQPGRSLRLSCAASGFTFSNYGMHWVRQAPGKGLEWVAVIWYDGSNKYYADSVKGRFTISRDNSKNTLYLQMNSLRAEDTAVYYCARAYYDILTDYPQYDYYYGMDVWGQGTTVTVSS
VL: NFMLTQPHSVSESPGKTVTISCTRSSGSIVSNFVQWYQQRPGSSPTTVIYEDNQRPSGVPDRFSGSIDSSSNSASLTISGLKTEDEADYYCQSYDTSNQVFGGGTKLTVL
B12: antibody A-6 (antibody, V domains shown)
VH: QVQLVESGGGVVQPGRSLRLSCAASGFTFSSYGMHWVRQAPGKGLEWVAEIWNDGSNKYYADSVKGRFTISRDNPKNTLYLQMNSLRAEDTAVYYCAREPQYYDILTGYDNYYGMDVWGQGTTVTVSS
VL: EIVLTQSPGTLSLFPGERATLSCRASQSVSSNYLAWYQQKSGQAPRLLIYGASSRATGIPDRFSGSGSGTDFTLTISRLEPEDFAVYYCQQYGNSPFTFGPGTNVDIK
B13: antibody A-5 (antibody, V domains shown)
VH: QVQLVESGGGVVQPGRSLRLSCAASGFTFSTYGMHWVRQAPGKGLEWVAVISDDGSHKYSADSVKGRFTISRDNSKNTLYLQMNSLRTEDSAVYYCAREETYYDILTGYHHYYGMDVWGQGTTVTVSS
VL: B1 VL with S14F, I48L, E55Q, T69S, V78L, V84A, N94D, G100Q, K103R, V104L
B14: antibody A-7 (antibody, V domains shown)
VH: QVQLVESGGGVVQPGRSLRLSCAASGFTFSSYDMHWVRQAPGKGLEWVAVISHDGSDKYYADSVKGRFTISRDNSKNTLYLQMSSLRAEDTAVYYCAREKPYYDILTGYFYYYGMDVWGQGTTVTVSS
VL: B1 VL with I21V, G28D, L33F, E55Q, V78L, V84A, H91Q, N94Y
B15: antibody A-15 (antibody, V domains shown)
VH: QVQLVESGGGVVQPGKSLRLSCAVSGFIFSSYGMHWVRQAPGKGLEWVALISFDGSNKYYADSVKGRFTISRDNSKNTLYLQMNSLRAEDTAVYYCARDGYYDILTGYEDDAFDIWGQGTMVTVSS
VL: not shown
B16: antibody A-23 (antibody, V domains shown)
VH: EVRLVESGGGLVQPGGSLRLSCTASGFPFNRYAMNWVRQAPGKGLEWVSYIGSSSSAIYYADSVKGRFTISRDNAKNSLYLQMNSLRDEDTAVYYCARYSSGWSPLFDYWGQGTLVTVSS
VL: DIQMTQSPSSVSASVGDRVTITCRASQGISSWLAWYQQKPGKAPKLLIYTASTLQSGVPSRFSGSGSGTDFTLTISSLQPEDFATYYCQQSNSFPLTFGGGTKVEIK
notes: Human antibody from XenoMouse hybridoma (IgG2 or IgG4 strains), purified from conditioned medium; also called L23H23
B17: antibody A-17 (antibody, V domains shown)
VH: QVQLVQSGAEVKKPGASVKVSCKASGYTFTSYGISWARQAPGQGLEWMGWIGVYNGHTKYAQKFQGRVTMTTDTSTSTAYMELRSLRSDDTAIFYCARRVAVAGYFDYWGQGTLVTVSS
VL: QSVLTQPPSVSGAPGQRVTISCTGSSSNIGAGYAVHWYQQLPGTAPKLLIYDNNNRPSGVPDRFSGSKSGTSASLAITGLQAEDEADYYCQSYDSSLSAIFGGGTKLTVL
notes: Human antibody from XenoMouse hybridoma (IgG2 or IgG4 strains), purified from conditioned medium; also called L17H17
B18: antibody A-16 (antibody, V domains shown)
VH: QVQLVQSGAEVKKPGASVKVSCKASGYTFTGYYLHWVRQAPGQGLEWMGWIIPDSGGTKYAQKFQGRVTMTRDTSISTAYLELSRLRSDDTAVYYCAREGFHYDILTGSYFYYYGMDVWGQGTTVTVSS
VL: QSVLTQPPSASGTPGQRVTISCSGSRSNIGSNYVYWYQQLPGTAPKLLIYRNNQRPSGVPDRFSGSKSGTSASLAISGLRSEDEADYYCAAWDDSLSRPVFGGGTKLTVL
notes: Human antibody from XenoMouse hybridoma (IgG2 or IgG4 strains), purified from conditioned medium; also called L16H16
B19: antibody A-20 (antibody, V domains shown)
VH: EVQLVESGGDLVQPGGSLRLSCAASGFTFSGYTLNWVRQAPGKGLEWVSNINSRSSLIYYTDSVKGRFTISRDNAKNSLYLQMNSLRDEDTAVYFCARDQYNWNYYYGMDVWGQGTTVTVSS
VL: B1 VL with E55Q, S77N, V78L, V84A, N94Y, L96R, T97S, G100Q, V104L
notes: Human antibody from XenoMouse hybridoma; also called L20H20

molecular target: mouse glucagon receptor (mouse (Mus musculus), UniProt Q61606 27-485); assay: cell-based or functional assay

| Binder | IC50 of inhibition of glucagon-induced cAMP production (HTRF, CHO K1 cells expressing the receptor) [nM] |
| --- | --- |
| B1 | 4.1 |

molecular target: T1, human glucagon receptor (human, UniProt P47871 26-477); assay: cell-based or functional assay

| Binder | IC50 of inhibition of glucagon-induced cAMP production (HTRF, CHO K1 cells expressing the receptor) [nM] |
| --- | --- |
| B1 | 7.4 |

Molecular target: T2, cynomolgus glucagon receptor (cynomolgus (Macaca fascicularis), UniProt P47871 26-477 (human entry))
T2 chain: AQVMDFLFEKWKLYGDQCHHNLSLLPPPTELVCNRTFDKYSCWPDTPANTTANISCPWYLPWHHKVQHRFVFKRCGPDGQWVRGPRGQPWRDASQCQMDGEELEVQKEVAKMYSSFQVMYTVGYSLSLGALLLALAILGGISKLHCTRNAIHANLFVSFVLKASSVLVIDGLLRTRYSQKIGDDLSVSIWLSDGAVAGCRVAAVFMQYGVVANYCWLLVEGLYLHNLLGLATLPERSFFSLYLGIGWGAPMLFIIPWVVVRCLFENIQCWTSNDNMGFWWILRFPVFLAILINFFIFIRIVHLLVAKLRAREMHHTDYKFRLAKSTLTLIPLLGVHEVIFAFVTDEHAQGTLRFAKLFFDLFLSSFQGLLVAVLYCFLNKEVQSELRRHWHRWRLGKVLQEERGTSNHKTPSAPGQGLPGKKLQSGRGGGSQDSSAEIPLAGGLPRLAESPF
Assay: cell-based or functional assay

| Binder | IC50 of inhibition of glucagon-induced cAMP production (HTRF, CHO K1 cells expressing the receptor) [nM] |
| --- | --- |
| B1 | 26.6 |

molecular target: rat glucagon receptor (rat (Rattus norvegicus), UniProt P30082 27-485); assay: cell-based or functional assay

| Binder | IC50 of inhibition of glucagon-induced cAMP production (HTRF, CHO K1 cells expressing the receptor) [nM] |
| --- | --- |
| B1 | 9.9 |

molecular target: T3, chimera-8 (amino acids 80-477 from human GCGR, remainder from human GLP-1 receptor) (human, UniProt P43220 24-83); assay: FMAT on cells expressing the chimeric receptor
T3 construct: Expressed on cells; not shown: in-frame C-terminal fluorescent protein, not identified

| Binder | binding result |
| --- | --- |
| B2 | no binding |
| B3 | no binding |

molecular target: T4, chimera-10 (amino acids 80-142 from human GCGR, remainder from human GLP-1 receptor) (human, UniProt P43220 24-83; P43220 146-463); assay: FMAT on cells expressing the chimeric receptor
T4 construct: Expressed on cells; not shown: in-frame C-terminal fluorescent protein, not identified

| Binder | binding result |
| --- | --- |
| B2 | no binding |
| B3 | no binding |

molecular target: T5, chimera-15 (amino acids 80-119 from human GCGR, remainder from human GLP-1 receptor) (human, UniProt P43220 24-83; P43220 125-463); assay: FMAT on cells expressing the chimeric receptor
T5 construct: Expressed on cells; not shown: in-frame C-terminal fluorescent protein, not identified

| Binder | binding result |
| --- | --- |
| B2 | no binding |
| B3 | no binding |

molecular target: T1, human glucagon receptor; assay: cell-based or functional assay; remark: another data set of the same source

| Binder | IC50 of inhibition of glucagon-induced cAMP production (HTRF, CHO K1 cells expressing the receptor) [nM] |
| --- | --- |
| B4 | 16.7 |
| B5 | 72.6 |
| B6 | 21.3 |
| B7 | 15 |
| B8 | 10.1 |
| B9 | 10.4 |
| B10 | 7.2 |
| B11 | 458 |
| B12 | 32.2 |
| B2 | 204 |
| B13 | 13.3 |
| B14 | 8.8 |
| B15 | 11.3 |

molecular target: T1, human glucagon receptor; assay: competition with 1 nM Alexa-labeled A-3 for human GCGR on CHO cells, FMAT

| Binder | binding result |
| --- | --- |
| B16 | binds |
| B17 | binds |
| B18 | binds |
| B19 | binds |
